How the values were obtained:
[1] = molecular target: DENV2 envelope (E) protein on virus particles (strain PE/95-3808) (Dengue virus 2); test: cell-based or functional assay
[2] = molecular target: DENV1 envelope (E) protein on virus particles (strain PE/97-42735) (Dengue virus 1); test: cell-based or functional assay
[3] = molecular target: T1, ZIKV Envelope (E) protein, recombinant, in its dimeric form (Native Antigen, UK) (Zika virus); test: thermal unfolding of the ZVPA3-E(Dimer) complex at the estimated stoichiometry, compared with ZVPA3 alone
T1 chain: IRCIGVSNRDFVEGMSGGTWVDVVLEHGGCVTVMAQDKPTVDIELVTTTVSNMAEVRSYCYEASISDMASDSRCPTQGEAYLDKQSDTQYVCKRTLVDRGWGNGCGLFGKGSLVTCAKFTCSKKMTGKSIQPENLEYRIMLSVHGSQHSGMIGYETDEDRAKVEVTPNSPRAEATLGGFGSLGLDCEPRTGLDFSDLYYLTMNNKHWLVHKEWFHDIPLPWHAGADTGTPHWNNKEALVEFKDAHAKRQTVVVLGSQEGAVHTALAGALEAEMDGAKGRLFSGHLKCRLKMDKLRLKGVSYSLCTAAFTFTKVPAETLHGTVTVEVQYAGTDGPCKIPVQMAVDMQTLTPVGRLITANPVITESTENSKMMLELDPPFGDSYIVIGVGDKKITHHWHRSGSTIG

[4] = molecular target: T1, ZIKV Envelope (E) protein, recombinant, …; test: estimated from MST concentrations at maximum binding (ca. 3x10^13 E dimer molecules with ca. 8x10^12 ZVPA3 molecules)
[5] = molecular target: T1, ZIKV Envelope (E) protein, recombinant, …; test: microscale thermophoresis (MST), 150 nM dye-labelled ZIKV E, ZVPA3 titrated in 16 serial 1:2 dilutions, three independent experiments

B1: ZVPA3 (designed binder)
chain: MGSSHHHHHHSSGLVPRGSHMAKGDPHVLLTTSAGNIELELDSQKAPVSVQNFLDYVNNGFYNNTTFHSVIPGYMIQGGGYTEDMQQKQPNPPIKNEADNGLRNTRGTIAMMRTEDKDSATSQFFINVADNAYADHGQTRYGFAVFGKVVKGMDVADKISQVPTHDVGPYQSVPSKPVVILSATVLPGSGC
notes: Produced as a monomer, ca. 20 kDa; In the MST with virus particles ZVPA3 carried the RED NT-647-NHS dye; The crystal structure of ZVPA3 alone is PDB 7ZFM; also called ZVAP3; designed protein
EC50, plaque reduction neutralization test (PRNT) of DENV2 on Vero cells [1]: 980 nM | EC50, plaque reduction neutralization test (PRNT) of DENV1 on Vero cells [2]: 870 nM | stability gain of the complex against ZVPA3 alone (thermal unfolding) [3]: ~5 ° C. | stoichiometry ratio ZVPA3:E(Dimer) [4]: 3.75 E(Dimer) per ZVPA3 | Kd [5]: 86.6 nM

Source: patent publication US20250002566A1 (FUNDA O OSWALDO CRUZ, published 2025)
